Measurements: patent US20220194999A1 (Janssen / Centocor, published 2022)

Columns and labels:
[1] = molecular target: T1, HLA-A*02:01 class I complex (conditional p*HLA*02:01, biotinylated heavy chain with beta2-microglobulin) (human, biotinylated heavy chain); assay: UV peptide exchange, HLA class I ELISA, % of Pos peptide;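 for Average %: Streptavidin-captured HLA complexes after exchange detected via HRP anti-human B2M antibody, absorbance read, colour scales with intact complex, normalized to exchange control peptide as 100%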;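 for Exch I (%): Streptavidin-captured HLA complexes after exchange detected via HRP anti-human B2M antibody, absorbance read, colour scales with intact complex, normalized to exchange control peptide as 100%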;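 for Exch II (%): Streptavidin-captured HLA complexes after exchange detected via HRP anti-human B2M antibody, absorbance read, colour scales with intact complex, normalized to exchange control peptide as 100%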
T1 construct: UV-labile peptide p* is cleaved and exchanged for the test peptide; also called HLA 2.1
From the text: (§1) The HLA class I ELISA is an enzyme immunoassay based on the detection of beta2-microglobulin (B2M) of (peptide-stabilized) HLA class I complexes. To this end streptavidin is bound onto polystyrene microtiter wells. After washing and blocking, HLA complex present in exchange reaction mixtures or ELISA controls is captured by the streptavidin on the microtiter plate via its biotinylated heavy chain. Non-bound material is removed by washing. Subsequently, horseradish peroxidase (HRP)-conjugated antibody to human B2M is added. […] In the latter case B2M is removed during the washing step. After removal of non-bound HRP conjugate by washing, a substrate solution is added to the wells. A colored product is formed in proportion to the amount of intact HLA complex present in the samples. After the reaction has been terminated by the addition of a stop solution, absorbance is measured in a microtiter plate reader. The absorbance is normalized to the absorbance of an exchange control peptide (represents 100%). Also, suboptimal HLA binding of peptides with a moderate to low affinity for HLA class I molecules can be detected by this ELISA technique
(§2) Coating wells of two NUNC MaxiSorp™ 96-well ELISA plates: only the contents of one coating buffer capsule were dissolved in 100 mL of distilled water (0.05 M carbonate-bicarbonate buffer, pH 9.6 at 25° C.). 46 μL of Streptavidin stock solution were added to 23 mL coating buffer. 100 μL of the Streptavidin stock solution were added to all wells. Each microtiter plate was covered with an adhesive seal and incubated overnight at room temperature (18-25° C.).

[2] = molecular target: T1, HLA-A*02:01 class I complex …; assay: as above; remark: listed apart in the source
From the text: as §1, §2

Row | Binder | average relative binding (%) [1] | Average % [2] | Exch I (%) [2] | Exch II (%) [2]
1 | CYLYYYSYLV (also called M102) [PTEN R173C6 mimic peptide CYLYYYSYLV] | < 15% | 10.7% | 10.4% | 10.9%
2 | CYMYYYSYLI (also called M106) [PTEN.R173C11 mimic peptide CYMYYYSYLI] | < 15% | 4.9% | 4.9% | 4.8%
3 | CYLYYYSYLI (also called M105) [PTEN.R173C10 mimic peptide CYLYYYSYLI] |  | 23.3% | 27.8% | 18.9%
4 | CYMYYYSYLL (also called M104) [PTEN.R173C3 mimic peptide CYMYYYSYLL] | < 15% | 8.5% | 8.3% | 8.7%
5 | LVVVGAAGV (also called M050) [KRAS.G12A mutant peptide LVVVGAAGV] | < 15% | 6.4% | 6.6% | 6.2%
6 | LMVVGAVGV (also called M072) [KRAS_G12V3 mimic peptide LMVVGAVGV] |  | 36.1% | 39% | 33.3%
7 | LMVVGAAGV (also called M052) [KRAS_G12A3 mimic peptide LMVVGAAGV] |  | 51.3% | 51% | 51.5%
8 | LLVVGACGV (also called M061) [KRAS_G12C2 mimic peptide LLVVGACGV] |  | 34.8% | 36.4% | 33.1%
9 | LLVVGAVGV (also called M071) [KRAS_G12V2 mimic peptide LLVVGAVGV] |  | 35.9% | 31.8% | 40.1%
10 | QLWVDSTPI (also called M181) [TP53_P152L3 mimic peptide QLWVDSTPI] |  | 67.9% | 62% | 73.8%
11 | QLWVDSTPV (also called M182) [TP53_P152L4 mimic peptide QLWVDSTPV] |  | 95.7% | 95.6% | 95.7%
12 | KLYPVQLWI (also called M134) [TP53.C141Y12 mimic peptide KLYPVQLWI] |  | 73.9% | 81.3% | 66.4%
13 | KMYPVQLWV (also called M132) [TP53_C141Y3 mimic peptide KMYPVQLWV] |  | 76.9% | 72.7% | 81%
14 | RLIHRDLAV (also called M242) [ERBB2_V842I5 mimic peptide RLIHRDLAV] |  | 73.6% | 69.9% | 77.3%
15 | RMIHRDLAV (also called M243; ERBB2_V84216) [ERBB2_V842I6 mimic peptide RMIHRDLAV] |  | 57.6% | 56.7% | 58.5%
16 | RMIHRDLAL (also called M241; ERBB2_V842110) [ERBB2_V842I10 mimic peptide RMIHRDLAL] |  | 53.7% | 51.5% | 55.8%
17 | GLAPPQLLV (also called M141) [TP53_H193L5 mimic peptide GLAPPQLLV] |  | 42.2% | 40.3% | 44.1%
18 | GLAPPQLLI (also called M140) [TP53.H193L mutant peptide GLAPPQLLI] | < 15% | 8.2% | 9.2% | 7.2%
19 | GMAPPQLLV (also called M142) [TP53_H193L6 mimic peptide GMAPPQLLV] | < 15% | 13.9% | 13.9% | 13.9%
20 | GMAPPQYLV (also called M152) [TP53_H193Y6 mimic peptide GMAPPQYLV] |  | 21.4% | 22.5% | 20.3%
21 | GLAPPQYLV (also called M151) [TP53_H193Y5 mimic peptide GLAPPQYLV] |  | 48.2% | 48.8% | 47.6%
22 | GLAPPQYLI (also called M150) [TP53.H193Y mutant peptide GLAPPQYLI] | < 15% | 13.3% | 13.5% | 13.1%
23 | SMTCTYFPL (also called M211) [TP53_S127F11 mimic peptide SMTCTYFPL] |  | 53.5% | 56.4% | 50.6%
24 | LLGRNSFEL (also called M221) [TP53_V272M2 mimic peptide LLGRNSFEL] |  | 98.4% | 101% | 95.7%
25 | LLGRNSFEI (also called M222) [TP53_V272M3 mimic peptide LLGRNSFEI] |  | 66.7% | 75.3% | 58%
26 | YLDCGIHSL (also called M034) [CTNNB1.S33C9 mimic peptide YLDCGIHSL] | > 100% | 107% | 103% | 111%

Row | Binder | average relative binding (%) [1] | Average % [2] | Exch I (%) [2] | Exch II (%) [2]
27 | YMDCGIHSL (also called M021) [CTNNB1_S33C10 mimic peptide YMDCGIHSL] | > 100% | 106% | 108% | 103%
28 | YMDCGIHSV (also called M023) [CTNNB1_S33C6 mimic peptide YMDCGIHSV] | > 100% | 108% | 101% | 115%
29 | YMDSGIHFL (also called M035) [CTNNB1.S37F10 mimic peptide YMDSGIHFL] | > 100% | 105% | 102% | 108%
30 | YLDSGIHFV (also called M032) [CTNNB1_S37F5 mimic peptide YLDSGIHFV] | > 100% | 104% | 99.3% | 109%
31 | YMDSGIHFI (also called M031) [CTNNB1_S37F14 mimic peptide YMDSGIHFI] | > 100% | 107% | 97.6% | 116%
32 | MIFSKRHWA (also called M010) [CIC.R215W mutant peptide MIFSKRHWA] | < 15% | 6.2% | 6.2% | 6.1%
33 | ILNREIDFV (also called M091) [PIK3CA_G118D5 mimic peptide ILNREIDFV] |  | 70.4% | 62.1% | 78.7%
34 | ILNREIDFL (also called M093) [PIK3CA_G118D9 mimic peptide ILNREIDFL] |  | 56.2% | 51.1% | 61.3%
35 | IMNREIDFV (also called M092) [PIK3CA_G118D6 mimic peptide IMNREIDFV] |  | 66.7% | 68.6% | 64.9%
36 | GLKDLLNPV (also called M081) [PIK3CA_E453K5 mimic peptide GLKDLLNPV] |  | 74.9% | 73.5% | 76.3%
37 | GMKDLLNPV (also called M082) [PIK3CA_E453K6 mimic peptide GMKDLLNPV] |  | 77.5% | 74.7% | 80.4%
38 | MMFSKRHWV (also called M013) [CIC_R215W7 mimic peptide MMFSKRHWV] |  | 74.4% | 76.2% | 72.6%
39 | MLFSKRHWV (also called M012) [CIC_R215W6 mimic peptide MLFSKRHWV] |  | 74.3% | 74.8% | 73.8%
40 | MMFSKRHWI (also called M011) [CIC_R215W15 mimic peptide MMFSKRHWI] |  | 42.8% | 40.4% | 45.3%
41 | NMDEYVHNV (also called M111) [SF3B1_R625H5 mimic peptide NMDEYVHNV] |  | 83.6% | 86.6% | 80.6%
42 | NLDEYVHNV (also called M112) [SF3B1_R625H6 mimic peptide NLDEYVHNV] |  | 88.2% | 88.1% | 88.4%
43 | NMDEYVHNT (also called M110) [SF3B1.R625H mutant peptide NMDEYVHNT] | < 15% | 8.3% | 9.2% | 7.3%
44 | NLDEYVHNI (also called M116) [SF3B1.R625H14 mimic peptide NLDEYVHNI] |  | 70.1% | 71.1% | 69%
45 | NLDEYVHNL (also called M114) [SF3B1.R625H10 mimic peptide NLDEYVHNL] |  | 55.1% | 57.2% | 53%
46 | NMDEYVHNI (also called M115) [SF3B1.R625H13 mimic peptide NMDEYVHNI] |  | 68.4% | 73.6% | 63.1%
47 | AMNNMFCQV (also called M162) [TP53_K132N6 mimic peptide AMNNMFCQV] |  | 70.1% | 69.4% | 70.8%
48 | VMSDAISAL (also called M124; SOX17.S40317) [SOX17.S403I7 mimic peptide VMSDAISAL] |  | 77.4% | 75.3% | 79.5%
49 | VLSDAISAL (also called M123; SOX17_S40316) [SOX17_S403I6 mimic peptide VLSDAISAL] |  | 87.3% | 91.9% | 82.6%
50 | VVSDAISAV (also called M120; SOX17.S4031) [SOX17.S403I mutant peptide VVSDAISAV] |  | 86.2% | 88.5% | 83.8%
51 | VMSDAISAV (also called M122; SOX17_S40313) [SOX17_S403I3 mimic peptide VMSDAISAV] |  | 92.4% | 96.9% | 87.9%
